Results published in US11230581B2, “Peptides and combination of peptides for use in immunotherapy against ovarian cancer and other cancers” (Immatics Biotechnologies GmbH, priority 2015, dated 2022).

target: HLA-A*02:01 (Homo sapiens, UniProt P04439, D140Y/D185E/D98H/E176V/E277Q/G131W/G231S/I119V/I121R/I166T/I218V/L300P/L318F/N151K/N90K/P208A/P217A/Q86G/Q94H/R138H/R169H/T345S); experiment: MHC binding assay (UV-ligand exchange, β2m ELISA, peptide exchange yield); settings: binding of HLA-class I restricted peptides to HLA-A*02:01, UV-ligand exchange
Excerpt: Candidate peptides for T cell based therapies according to the present invention were further tested for their MHC binding capacity (affinity). The individual peptide-MHC complexes were produced by UV-ligand exchange, where a UV-sensitive peptide is cleaved upon UV-irradiation, and exchanged with the peptide of interest as analyzed. Only peptide candidates that can effectively bind and stabilize the peptide-receptive MHC molecules prevent dissociation of the MHC complexes. To determine the yield of the exchange reaction, an ELISA was performed based on the detection of the light chain (β2m) of stabilized MHC complexes. The assay was performed as generally described in Rodenko et al. (Rodenko et al., 2006).
96 well MAXISorp plates (NUNC) were coated over night with 2 ug/ml streptavidin in PBS at room temperature, washed 4× and blocked for 1h at 37° C. in 2% BSA containing blocking buffer. […] Peptide-MHC monomers of the UV-exchange reaction were diluted 100 fold in blocking buffer. Samples were incubated for 1 h at 37° C., washed four times, incubated with 2 ug/ml HRP conjugated anti-β2m for 1h at 37° C., washed again and detected with TMB solution that is stopped with […]. Absorption was measured at 450 nm. Candidate peptides that show a high exchange yield (preferably higher than 50%, most preferred higher than 75%) are generally preferred for a generation and production of antibodies or fragments thereof, and/or T cell receptors or fragments thereof, as they show sufficient avidity to the MHC molecules and prevent dissociation of the MHC complexes.

Q: Which “Peptide exchange (MHC class I binding score, peptide exchange yield)” value (shortened to “Peptide exchange”) does the source give for “450 (FMIDASVHPTL; listed as Homo sapiens) [compound 450]” here?
A: Its value is ““+++” (≥50 = +++)”.

Q: Which “Peptide exchange” value does the source give for “72 (SLLELDGINL; listed as Homo sapiens) [compound 72]” here?
A: Its value is ““+++” (≥50 = +++)”.

Q: With “336 (ILLTAIVQV; listed as Homo sapiens) [compound 336]” as the substance, how does the “Peptide exchange” value read?
A: The value was ““+++” (≥50 = +++)”.

Q: For “158 (KLFDVDEDGYI; listed as Homo sapiens) [compound 158]”, which “Peptide exchange” value is on record?
A: Its value is ““+++” (≥50 = +++)”.

Q: With “503 (SLNHFTHSV; listed as Homo sapiens) [compound 503]” as the substance, how does the “Peptide exchange” value read?
A: Its value is ““+++” (≥50 = +++)”.

Q: Which “Peptide exchange” value does the source give for “374 (FLLQQHLISA; listed as Homo sapiens) [compound 374]” here?
A: The value was ““++” (≥20% = ++)”.

Q: Which “Peptide exchange” value does the source give for “223 (ALLENIALYL; listed as Homo sapiens) [compound 223]” here?
A: The value was ““+++” (≥50 = +++)”.

Q: How did the “Peptide exchange” value turn out when “497 (GLLEKLTAI; listed as Homo sapiens) [compound 497]” was run?
A: The value was ““+++” (≥50 = +++)”.

Q: How did the “Peptide exchange” value turn out when “49 (YLPAVFEEV; listed as Homo sapiens) [compound 49]” was run?
A: The value was ““+++” (≥50 = +++)”.

Q: Which “Peptide exchange” value does the source give for “189 (ALQRKLPYV; listed as Homo sapiens) [compound 189]” here?
A: Its value is ““+++” (≥50 = +++)”.

Q: With “236 (GLLEAKVSL; listed as Homo sapiens) [compound 236]” as the substance, how does the “Peptide exchange” value read?
A: The value was ““+++” (≥50 = +++)”.

Q: How did the “Peptide exchange” value turn out when “83 (ILAPTVMMI; listed as Homo sapiens) [compound 83]” was run?
A: Its value is ““+++” (≥50 = +++)”.

Q: For “47 (ILLSVPLLVV; listed as Homo sapiens) [compound 47]”, which “Peptide exchange” value is on record?
A: The value was ““++” (≥20% = ++)”.

Q: With “232 (ALLEAQDVELYL; listed as Homo sapiens) [compound 232]” as the substance, how does the “Peptide exchange” value read?
A: The value was ““++” (≥20% = ++)”.

Q: “408 (VLDDSIYLV; listed as Homo sapiens) [compound 408]” was tested. Which “Peptide exchange” value did it give?
A: The value was ““++” (≥20% = ++)”.

Q: How did the “Peptide exchange” value turn out when “114 (SLVGEPILQNV; listed as Homo sapiens) [compound 114]” was run?
A: The value was ““++” (≥20% = ++)”.

Q: With “508 (ILAQEQLVVGV; listed as Homo sapiens) [compound 508]” as the substance, how does the “Peptide exchange” value read?
A: The value was ““+++” (≥50 = +++)”.

Q: How did the “Peptide exchange” value turn out when “469 (YLASDEITTV; listed as Homo sapiens) [compound 469]” was run?
A: Its value is ““+++” (≥50 = +++)”.

Q: With “506 (KLLGKVETA; listed as Homo sapiens) [compound 506]” as the substance, how does the “Peptide exchange” value read?
A: The value was ““+++” (≥50 = +++)”.

Q: Which “Peptide exchange” value does the source give for “331 (KVDTVWVNV; listed as Homo sapiens) [compound 331]” here?
A: Its value is ““+++” (≥50 = +++)”.

Q: How did the “Peptide exchange” value turn out when “84 (VTFGEKLLGV; listed as Homo sapiens) [compound 84]” was run?
A: The value was ““++” (≥20% = ++)”.

Q: Which “Peptide exchange” value does the source give for “8 (FTLGNVVGMYL; listed as Homo sapiens) [compound 8]” here?
A: Its value is ““++++” (≥75% = ++++)”.

Q: How did the “Peptide exchange” value turn out when “575 (YLISQVEGHQV; listed as Homo sapiens) [compound 575]” was run?
A: The value was ““+++” (≥50 = +++)”.

Q: For “396 (ALLPDLPAL; listed as Homo sapiens) [compound 396]”, which “Peptide exchange” value is on record?
A: The value was ““+++” (≥50 = +++)”.

Q: With “174 (ALAQYLITA; listed as Homo sapiens) [compound 174]” as the substance, how does the “Peptide exchange” value read?
A: Its value is ““+++” (≥50 = +++)”.

Q: For “299 (YLLETSGNL; listed as Homo sapiens) [compound 299]”, which “Peptide exchange” value is on record?
A: The value was ““+++” (≥50 = +++)”.

Q: For “80 (FLYDNLVESL; listed as Homo sapiens) [compound 80]”, which “Peptide exchange” value is on record?
A: The value was ““++” (≥20% = ++)”.

Q: With “81 (FLFSQLQYL; listed as Homo sapiens) [compound 81]” as the substance, how does the “Peptide exchange” value read?
A: The value was ““++” (≥20% = ++)”.

Q: Which “Peptide exchange” value does the source give for “537 (TLAPGEVLRSV; listed as Homo sapiens) [compound 537]” here?
A: The value was ““+++” (≥50 = +++)”.

Q: “310 (FLVDTPLARA; listed as Homo sapiens) [compound 310]” was tested. Which “Peptide exchange” value did it give?
A: The value was ““++++” (≥75% = ++++)”.

Q: “42 (VLLQKIVSA; listed as Homo sapiens) [compound 42]” was tested. Which “Peptide exchange” value did it give?
A: The value was ““+++” (≥50 = +++)”.

Q: “214 (FLLDLDPLLL; listed as Homo sapiens) [compound 214]” was tested. Which “Peptide exchange” value did it give?
A: The value was ““+++” (≥50 = +++)”.

Q: With “261 (YVLEFLEEI; listed as Homo sapiens) [compound 261]” as the substance, how does the “Peptide exchange” value read?
A: Its value is ““++” (≥20% = ++)”.

Q: “490 (FLLQHVQEL; listed as Homo sapiens) [compound 490]” was tested. Which “Peptide exchange” value did it give?
A: The value was ““+++” (≥50 = +++)”.

Q: With “426 (RLADKSVLV; listed as Homo sapiens) [compound 426]” as the substance, how does the “Peptide exchange” value read?
A: Its value is ““+++” (≥50 = +++)”.

Q: “218 (SALEELVNV; listed as Homo sapiens) [compound 218]” was tested. Which “Peptide exchange” value did it give?
A: The value was ““++” (≥20% = ++)”.

Q: “605 (KLYEAVPQL; listed as Homo sapiens) [compound 605]” was tested. Which “Peptide exchange” value did it give?
A: Its value is ““+++” (≥50 = +++)”.

Q: How did the “Peptide exchange” value turn out when “480 (ALLEDSCHYL; listed as Homo sapiens) [compound 480]” was run?
A: Its value is ““+++” (≥50 = +++)”.

Q: Which “Peptide exchange” value does the source give for “493 (GLLGEKTQDLIGV; listed as Homo sapiens) [compound 493]” here?
A: The value was ““+++” (≥50 = +++)”.

Q: With “104 (STMEQNFLL; listed as Homo sapiens) [compound 104]” as the substance, how does the “Peptide exchange” value read?
A: Its value is ““++++” (≥75% = ++++)”.

Q: With “485 (NVPDSFNEV; listed as Homo sapiens) [compound 485]” as the substance, how does the “Peptide exchange” value read?
A: Its value is ““+++” (≥50 = +++)”.

Q: Which “Peptide exchange” value does the source give for “620 (KLLNKIYEA; listed as Homo sapiens) [compound 620]” here?
A: The value was ““++++” (≥75% = ++++)”.

Q: Which “Peptide exchange” value does the source give for “190 (FLSSLTETI; listed as Homo sapiens) [compound 190]” here?
A: The value was ““+++” (≥50 = +++)”.

Q: With “347 (SLFKHDPAAWEA; listed as Homo sapiens) [compound 347]” as the substance, how does the “Peptide exchange” value read?
A: Its value is ““++++” (≥75% = ++++)”.

Q: “60 (SLTIDGIYYV; listed as Homo sapiens) [compound 60]” was tested. Which “Peptide exchange” value did it give?
A: Its value is ““++++” (≥75% = ++++)”.

Q: For “608 (SLLSVSHAL; listed as Homo sapiens) [compound 608]”, which “Peptide exchange” value is on record?
A: Its value is ““+++” (≥50 = +++)”.

Q: For “244 (SLFGGTEITI; listed as Homo sapiens) [compound 244]”, which “Peptide exchange” value is on record?
A: Its value is ““+++” (≥50 = +++)”.

Q: “176 (YLMEGSYNKVFL; listed as Homo sapiens) [compound 176]” was tested. Which “Peptide exchange” value did it give?
A: Its value is ““++” (≥20% = ++)”.

Q: How did the “Peptide exchange” value turn out when “556 (FLTDLEDLTL; listed as Homo sapiens) [compound 556]” was run?
A: Its value is ““+++” (≥50 = +++)”.

Q: “108 (ALFPGVALLLA; listed as Homo sapiens) [compound 108]” was tested. Which “Peptide exchange” value did it give?
A: The value was ““++++” (≥75% = ++++)”.

Q: How did the “Peptide exchange” value turn out when “479 (SLFGNSGILENV; listed as Homo sapiens) [compound 479]” was run?
A: Its value is ““+++” (≥50 = +++)”.

Q: “611 (YLLDDGTLVV; listed as Homo sapiens) [compound 611]” was tested. Which “Peptide exchange” value did it give?
A: The value was ““++++” (≥75% = ++++)”.

Q: With “79 (SLFIGEKAVLL; listed as Homo sapiens) [compound 79]” as the substance, how does the “Peptide exchange” value read?
A: The value was ““+++” (≥50 = +++)”.

Q: Which “Peptide exchange” value does the source give for “547 (TLDITPHTV; listed as Homo sapiens) [compound 547]” here?
A: The value was ““+++” (≥50 = +++)”.

Q: With “612 (YLYNEGLSV; listed as Homo sapiens) [compound 612]” as the substance, how does the “Peptide exchange” value read?
A: Its value is ““+++” (≥50 = +++)”.

Q: “266 (KITDTLIHL; listed as Homo sapiens) [compound 266]” was tested. Which “Peptide exchange” value did it give?
A: Its value is ““+++” (≥50 = +++)”.

Q: “90 (TLLQIIETV; listed as Homo sapiens) [compound 90]” was tested. Which “Peptide exchange” value did it give?
A: Its value is ““+++” (≥50 = +++)”.

Q: “598 (FLFPHSVLV; listed as Homo sapiens) [compound 598]” was tested. Which “Peptide exchange” value did it give?
A: The value was ““+++” (≥50 = +++)”.

Q: “392 (ALLHPQGFEV; listed as Homo sapiens) [compound 392]” was tested. Which “Peptide exchange” value did it give?
A: Its value is ““++” (≥20% = ++)”.

Q: For “10 (FLATFPLAAV; listed as Homo sapiens) [compound 10]”, which “Peptide exchange” value is on record?
A: The value was ““++++” (≥75% = ++++)”.

Q: “499 (KIFDIDEAEEGV; listed as Homo sapiens) [compound 499]” was tested. Which “Peptide exchange” value did it give?
A: The value was ““++” (≥20% = ++)”.
